Data on 3 variants can be found in IntAct's records for PubMed 20404169.

B1: Protein kinase C and casein kinase substrate in neurons protein 1 (Mus musculus), Q61644 (parent)
chain: MSGSYDEASEEITDSFWEVGNYKRTVKRIDDGHRLCNDLMSCVQERAKIEKAYAQQLTDWAKRWRQLIEKGPQYGSLERAWGAMMTEADKVSELHQEVKNSLLNEDLEKVKNWQKDAYHKQIMGGFKETKEAEDGFRKAQKPWAKKMKELEAAKKAYHLACKEERLAMTREMNSKTEQSVTPEQQKKLVDKVDKCRQDVQKTQEKYEKVLEDVGKTTPQYMEGMEQVFEQCQQFEEKRLVFLKEVLLDIKRHLNLAENSSYMHVYRELEQAIRGADAQEDLRWFRSTSGPGMPMNWPQFEEWNPDLPHTTAKKEKQPKKAEGATLSNATGAVESTSQAGDRGSVSSYDRGQTYATEWSDDESGNPFGGNEANGGANPFEDDAKGVRVRALYDYDGQEQDELSFKAGDELTKLGEEDEQGWCRGRLDSGQLGLYPANYVEAI
partner: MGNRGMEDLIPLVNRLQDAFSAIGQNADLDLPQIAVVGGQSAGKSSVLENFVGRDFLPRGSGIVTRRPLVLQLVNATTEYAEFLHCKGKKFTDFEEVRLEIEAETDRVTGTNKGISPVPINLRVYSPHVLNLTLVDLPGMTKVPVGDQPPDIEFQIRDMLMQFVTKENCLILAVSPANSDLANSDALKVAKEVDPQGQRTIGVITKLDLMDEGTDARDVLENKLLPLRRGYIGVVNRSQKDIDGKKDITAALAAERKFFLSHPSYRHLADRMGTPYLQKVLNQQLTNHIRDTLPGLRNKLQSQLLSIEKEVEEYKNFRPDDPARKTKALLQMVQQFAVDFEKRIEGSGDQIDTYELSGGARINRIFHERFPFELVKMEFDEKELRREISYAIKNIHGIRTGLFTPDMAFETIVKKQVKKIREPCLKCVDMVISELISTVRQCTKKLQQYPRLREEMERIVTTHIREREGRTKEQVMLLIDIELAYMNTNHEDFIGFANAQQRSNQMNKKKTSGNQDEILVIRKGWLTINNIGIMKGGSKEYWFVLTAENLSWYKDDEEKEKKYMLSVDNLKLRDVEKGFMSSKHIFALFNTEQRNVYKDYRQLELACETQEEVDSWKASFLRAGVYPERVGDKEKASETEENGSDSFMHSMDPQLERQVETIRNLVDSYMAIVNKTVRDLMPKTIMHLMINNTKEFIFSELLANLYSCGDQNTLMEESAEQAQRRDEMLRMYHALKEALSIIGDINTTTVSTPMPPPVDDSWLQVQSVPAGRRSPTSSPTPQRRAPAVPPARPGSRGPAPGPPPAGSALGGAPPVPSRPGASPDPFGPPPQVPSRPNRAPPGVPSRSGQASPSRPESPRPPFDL

The assay covers variants of B1. The note with it: with dyn1_human DNM1, Q05193.
For the variant D394R;E400R, the “effect of a mutation on the interaction” value is “decreasing interaction strength”.

With E400R, the “effect of a mutation on the interaction” value was “decreasing interaction”.

With P434L, the “effect of a mutation on the interaction” value was “decreasing interaction”.
